Experimental data as given in patent US20220073643A1.

B1: 425B3D5 (antibody, V domains shown)
VH: DVQLVESGGGLVQPGGSRKLSCAASGFTFSGFGMHWIRQTPEKGLEWVAYISSGSRPIYYADTVQGRFTISRDNPKNTLFLQMTSLRSEDTAMYFCARFYYGNSFDHWGQGTLVTVSS
VL: DIVMTQSPSFLTVTAGEKVTMSCKSSQSLLNSGNQKNYLTWYQQKPGQPPKLLIYWASTRESGVPDRFTGSGSGTDFTLTISSVQAEDLALYYCQNAYSFPLTFGAGTKLELK
B2: 234B9D4 (antibody, V domains shown)
VH: EIQLQQSGPDLMKPGSSVKISCTASGYSFTSYYIHWVKQSHGKTLEWIGYIDPFNGGTRYNQKFEGKAALTVDKSSTTAYMHLTSLTSDDSAVYYCASLRFFTYWGQGTLVTVSA
VL: DIVMTQSPSSLTVTAGEKVTMTCKSSQSLLNSGNQENYLTWYQQKPGQPPKLLISRASTRQSGVPDRFTGSGSGTDFTLTISSVQAEDLAVYYCQNDYSYPLTFGAGTKLELK
B3: 232F1E4 (antibody, V domains shown)
VH: QVQLKESGPGLVAPSQSLSITCTVSGFALTTYGVSWVRQPPGKGLEWLGVIWGDGSTHYHSALISRLSIRKDNSKSQVFLKLNSLQTDDTATYYCAKPGRGNAMDYWGQGTSVTVSS
VL: DIVMSQSPSSLTVTAGEKVTMSCKSSQSLLNSGNQKNYLTWYQQKPGQSPKLLIYWASTRESGVPDRFTGSGSGTDFTLTISSMQAEDLAVYYCQNDYIYPLTFGAGTMLELK
B4: 426H6E11 (antibody, V domains shown)
VH: DVQLVESGGGLVQPGGSRKLSCAASGFTFSGFGMHWIRQTPEKGLEWVAYISSGSRPIYYADTVQGRFTISRDNPKNTLFLQMTSLRSEDTAMYFCARFYYGNSFDHWGQGTLVTVSS
VL: DIVMTQFPSFLTVTAGEKVTMSCKSSQTLLNSGNQKNYLTWYQQKPGQPPKLLIYWASTRESGVPDRFTGSGSGTDFTLTISSVQAEDLALYYCQNAYSFPLTFGAGTNLELK
B5: 222B6G5 (antibody, V domains shown)
VH: QTYLQQSGAELVRSGASVKMSCKASGYTFTSYNIHWVKQTPGQGLEWIGYISPGNGGTYYNLKFKDKATLTTATSSSTAYMQISSLTSEDSAVYFCATGRGFAYWGQGTLVTVSA
VL: DIVMTQSPSSLTVTPGEKVTMSCKSSQSLFNSGNQKNYLIWYQQKPGQPPKLLIYRASTRDSGVPDRFTGSGSGTDFTLTISNVQAEDLAVYYCQNDYSYPLTFGAGTKLELK
B6: 430B3F1 (antibody, V domains shown)
VH: DVQLVESGGGLVQPGGSRKLSCAASGFTFSGFGMHWIRQTPEKGLEWVAYISSGGRPIYYADTVQGRFTISRDNPKNTLFLQMTSLRSEDTAMYFCARFYYGNSFDHWGQGTLVTISS
VL: DIVMTQSPSFLTVTAGEKVTMSCKSSQSLLNSGNQKNYLTWYQQKPGQPPKLLIYWASTRESGVPDRFTGSGSGTDFTLTISSVQAEDLALYYCQNAYSFPLTFGAGTKLELK
B7: 232C5E3 (antibody, V domains shown)
VH: QAYLQQSGAELVRSGASVKMSCKASGYTFTSHNIHWIKQTPGKGLEWIGYIYPGNGGTNYNQKFKAKATLTADTSSSTAYMQISSLTSEDSAVYFCARDYYGNSFAYWGQGTLVTVSA
VL: DIMMTQSPSSLTETAGEKVSMSCKSSQSLLNSGNQKNYLTWYQQKPGQPPKLLIYWASTRESGVPDRFSGSGSGTDFTLTISSVQAEDLAVYYCQNGYRFPFTFGAGTKLELK
B8: 226A4B5 (antibody, V domains shown)
VH: QAYLQQSGAELVRSGASVRMSCKASGFTFTSYNIHWVKQTPGQGLEWIGYIYPGSGGSNYNQKFMGKATLTADTSSSTVYMQISSLTSEDSAVYFCATGRGFAYWGQGTLVTVSA
VL: DIVMTQSPSSLTVTAGEKVTMSCKSSQSLFNSGNQKNYLTWYQQKPGQPPKLLIYRASTRESGVPDRFTGSGSGTDFTLTISSVQAEDLAVYYCQNDYSYPLTFGTGTKLELK
B9: 426D9F6 (antibody, V domains shown)
VH: DVQLVESGGGLVQPGGSRKLSCAASGFTFSGFGMHWIRQTPEKGLEWVAYISSGSRPIYYADTVKGRFTISRDNPKNTLFLQMTSLRSEDTAMYFCARFYYGNSFDHWGQGTLVTVSA
VL: DIVMTQSPSFLTVTAGEKVTMSCKSSQSLLNSGNQRNYLTWYQQKPGQPPKLLIYWASTRESGVPDRFTGSGSGTDFTLTVSSVQAEDLALYYCQNAYSFPLTFGAGTKLELK
B10: 233D5E5 (antibody, V domains shown)
VH: QAYLQQSGAELVRSGASVKMSCKASGYTFTSHNMHWVKQTPRQGLEWIGYIYPGNGDTNYNQKFKGKATLTADTSSSTAYMQISSLTSEDSAVYFCTRDYYGNSFAYWGQGTLVTVSA
VL: DIVMTQSPSSLTEKAGERVSMSCKSSQSLFNSGNQKNYLTWYQQKPGQPPKLLIYWASTRESGVPDRFTGSGSGTDFTLTISSVQAEDLAVYYCQNAYWYPFTFGAGTKLELK
B11: 182D10F1 (antibody, V domains shown)
VH: QAYLQQSGAELVRSGASVKMSCKASGYTFSSYNMHWVKQTPGQGLEWIGYIYPGNGGTNYNQKFKGKATLTADTSSSTAYMQISSLTSEDSAVYFCLTGRGFTYWGQGTLVTVSA
VL: DIVMTQSPSSLTVTAGEKVTMNCKSSQSLFNSGNQKNYLTWYQQKPGQPPKLLIYRASTRESGVPDRFTGSGSGTDFTLTISSVQAEDLAVYYCQNDYSYPLTFGVGTKLELK
B12: 425C6D3 (antibody, V domains shown)
VH: DVQLVESGGGLVQPGGSRKLSCAASGFTFSGFGMHWIRQTPEKGLEWVAYISSGSRPIYYADTVQGRFTISRDNPKNTLFLQMTSLRSEDTAMYFCARFYYGNSFDHWGQGTLVTVSS
VL: DIVMTQSPSFLTVTAGEKVTMSCKSSQSLLNSGNQKNYLTWYQQKPGQPPKLLIYWASTRESGVPDRFTGSGSGTDFTLTISSVQAEDLALYYCQNAYSFPLTFGAGTKLELK
B13: 207F8G5 (antibody, V domains shown)
VH: QAYLQQSGAELVRSGASVKMSCKASGFTFTSYNIHWVKQTPGQGLEWIGYISPGNGGSNYNLKFKDKATLTSATSSSTAYMQISSLTSEDSAVYFCATGRGFAYWGQGTLVTVSA
VL: DIVMTQSPSSLTVTPGEKVTMSCKSSQSLFNSGNQKNYLIWYQQKPGQPPKLLIYRASTRDSGVPDRFTGSGSGTDFTLTISNVQAEDLAIYYCQNDYSYPLTFGAGTKLELK
B14: 234A10F7 (antibody, V domains shown)
VH: QVQLQQSGAELVKPGASVKLSCKASGYTFTSFGINWLRQRPEQGLEWIGWIFPGDGNSKYNENFKGKATLTTDKSSSTAYMQLTRLTSEDSAVYFCARFYYGNSFAYWGQGTLVTVSA
VL: DIVMTQSPSSLTVTTGQKVTMSCKSSQSLLNSGNQKNYLTWYQQKPGQPPKLLIYWAATRESGVPDRFTGSGSGTDFTLTISSVQAEDLAVYYCQNDYFYPFTFGAGTKLELK
B15: 35E8D2 (antibody, V domains shown)
VH: QIQLVQSGPELKKPGETVRISCKASGYTFTTAGMQWVQKMPGKGLKWIGWINTHSRVPNFAEDFKGRFAFSLETSARIAYLQISNIKNEDMATYFCARLGKGNTMDFWGQGTSVTVSS
VL: DIVMTQSPSSLTVTVGEKVTMSCKSSQSLLNSGNQKNYLTWYQQKPGQPPKLLIYWASTRESGVPDRFTGSGSETDFTLTISSLQAEDLAVYYCQNSYSFPLTFGGGTNLEIK
B16: 231C11E9 (antibody, V domains shown)
VH: EVMLVESGGGLVKPGGSLKLSCAASGFTFNNYVMCWVRQTPEKRLEWVATISSGNFYTYYPDSVKGRFTISRDNAKNTLYLQMSSLRSEDTAIYYCASLGRGNALDNWGQGTSVTVSS
VL: DIVMTQSPASLTVTAKEKVTMSCRSSQSLLNSGNQKNYLTWYQQKPGQPPKLLIYWASTRESGVPDRFTGSGSGTDFTLTISSVQAEDLAVYYCQNDYSYPFTFGSGTKLEIK
B17: 424G9G3 (antibody, V domains shown)
VH: QVQLQQSGPEVVRPGASVKMSCKGSGYTLNNFWMHWVKQRPGQGLEWIGMIDTSNGETRLNQIFKDKATLTVDKSSKTAYMQLSSLTSEDSAVYYCAPYGNFADWGQGTTLTVSS
VL: DVLLTQTPLSLPVSLGDQASISCRSSQSIVYGNGNTYLEWYLQKPGQSPKLLIYKVSSRFSGVPDRFSGSGSGTDFTLKITKVEAEDLGVYYCFQGSHVPFTFGSGTKLEIK
B18: 61H12G10 (antibody, V domains shown)
VH: QVQLKESGPGLVAPSQSLSITCTVSGFSLTDYGVSWIRQPPGKGLEWLGVIWGGGSTYYNSALKSRLIISKDNSKSQVFLKMNSLQTDDTAIYYCAKHHYGNACDYWGQGTTLTVSS
VL: DIVMTQSPSSLTVTAGEKVTMSCKSSQSLFNSGNLKNYLTWYQQKPGQPPKLLICWASTRESGVPDRFTGSGSGTEFTLTISSVQAEDLAVYYCQNDYSYPFTFGSGTKLEIK
B19: 69D5C1 (antibody, V domains shown)
VH: EVKLVESGGGLVQPGGSRKLSCAASGFTFRDYGMAWVRQAPGKGPEWITFISNLAYSIYYADTVTGRFTISTENAKNTLYLEMSSLRSEDTAMYYCAVIYYGNSFAYWGQGTLVTV
VL: DIVLTQSPSSLTVTAGEKVTMSCKSSQSLLNSGNLRNYLTWYQQKPGQPPKLLIYWASTRESGVPDRFTGSGSGTDFTLTISSLQAEDLAIYYCQNGYSYPFTFGSGTKLEIK
B20: 217D9G2 (antibody, V domains shown)
VH: QAYLQQSGAELVRSGASVKMSCKASGFTFTSYNIHWVKQTPGQGLEWIGYISPGNGGSNYNLNFKDKATLTAATSSTTAYMQISSLTSEDSAVYFCATGRGFAYWGQGTLVTVSA
VL: DIVMTQSPSSLTVTPGEKVTMSCRSSQSLFNSGNQKNYLIWYQQKPGQPPKLLIYRASTRDSGVPDRFTGSGSGTDFTLTISNVQAEDLAVYYCQNDYSYPLTFGAGTKLELK
B21: 231H4G11 (antibody, V domains shown)
VH: QAYLQQSGAELVRSGASVKMSCKASGYTFTSHNIHWVKQTPGQGLEWIGYISPGNGYTNYNQKFRGKATLTADTSSSTAYMQISSLTSEDSAVYFCTRDYYGNSFAYWGQGTLVTVSA
VL: DIVMTQSPSSLTEKAGERVSMSCKSSQSLFNSGSQKNYLTWYQQKPGQPPKLLIYWASTRESGVPDRFSGSGSGTDFTLTISSVQAEDLAVYYCQNNYWFPFTFGAGTKLELK
B22: 232D7C8 (antibody, V domains shown)
VH: QAYLQQSGAELVRSGASVKMSCKASGYTFTSHNMHWVKQTPGQGLEWIGYIYPGNGGTNYNQKFKGKATLTADTSSSTAYMQISSLTSEDSAVYFCARDYFGNSFAYWGQGTLVTVSA
VL: DILMTQSPSSLTATAGEKVSMSCKSSQSLFNSGNQRNYLTWYQQRPGQPPKLLIYWASTRESGVPDRFTGSGSGTDFTLTISSVQAEDLAVYYCQNDYRYPFTFGAGTKLELK

The binders below were run against Claudin18.2-His protein (human) (assay: indirect ELISA on coated Claudin18.2-His).
B1 gave an EC50 of 0.0037 µg/mL. For B2, the EC50 was 0.0405 µg/mL. Binder B3 has an EC50 of 0.0509 µg/mL. B4 gave an EC50 of 0.0224 µg/mL. In the case of B5, the EC50 is reported as 0.0201 µg/mL. Work on B6 yielded an EC50 of 0.0154 µg/mL. B7 showed an EC50 of 0.0259 µg/mL. B8 was tested, and the EC50 was 0.00813 µg/mL. B9 showed an EC50 of 0.0112 µg/mL. In the case of B10, the EC50 is reported as 0.0943 µg/mL. B11 showed an EC50 of 0.0236 µg/mL. B12 gave an EC50 of 0.0114 µg/mL. B13 was tested, and the EC50 was 0.0335 µg/mL. With B14 the EC50 was 0.0268 µg/mL. Work on B15 yielded an EC50 of 0.00319 µg/mL. For B16, the EC50 was 0.0413 µg/mL. With B17 the EC50 was 0.03 µg/mL. B18 showed an EC50 of 0.0351 µg/mL. B19 was tested, and the EC50 was 0.00266 µg/mL. B20 showed an EC50 of 0.028 µg/mL. Binder B21 has an EC50 of 0.0394 µg/mL. B22 gave an EC50 of 0.0305 µg/mL.
